Measured values: paper PMC10397247

Tests used:
Assay in all cases: two-hybrid library CCmax;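 note: natural log of median RNA to DNA barcode read ratio; higher means stronger binding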
4H716-AA = molecular target: T1, 4H716-AA
T1 chain: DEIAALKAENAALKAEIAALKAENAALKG

4H733-AA = molecular target: T2, 4H733-AA; conditions: mean of both orientations
T2 chain: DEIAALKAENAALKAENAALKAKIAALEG

4H807-AA = molecular target: T3, 4H807-AA; conditions: mean of both orientations
T3 chain: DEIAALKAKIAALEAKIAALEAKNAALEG

APC1015-AA = molecular target: T4, APC1015-AA; conditions: mean of both orientations
T4 chain: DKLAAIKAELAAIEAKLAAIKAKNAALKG

APC1434-AA = molecular target: T5, APC1434-AA; conditions: mean of both orientations
T5 chain: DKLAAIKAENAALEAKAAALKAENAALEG

APC2237-AA = molecular target: T6, APC2237-AA; conditions: mean of both orientations
T6 chain: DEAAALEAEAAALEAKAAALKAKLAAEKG

APC232-AA = molecular target: T7, APC232-AA; conditions: mean of both orientations
T7 chain: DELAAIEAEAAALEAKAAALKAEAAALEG

APC2405-AA = molecular target: T8, APC2405-AA; conditions: mean of both orientations
T8 chain: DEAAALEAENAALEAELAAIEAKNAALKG

APC3645-AA = molecular target: T9, APC3645-AA; conditions: mean of both orientations
T9 chain: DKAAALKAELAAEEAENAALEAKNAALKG

APC4011-AA = molecular target: T10, APC4011-AA; conditions: mean of both orientations
T10 chain: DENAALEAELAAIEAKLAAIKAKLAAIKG

APC4264-AA = molecular target: T11, APC4264-AA; conditions: mean of both orientations
T11 chain: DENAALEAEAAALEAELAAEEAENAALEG

APC4436-AA = molecular target: T12, APC4436-AA; conditions: mean of both orientations
T12 chain: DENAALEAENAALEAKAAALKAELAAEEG

APC5383-AA = molecular target: T13, APC5383-AA; conditions: mean of both orientations
T13 chain: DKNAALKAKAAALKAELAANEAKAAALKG

APC6108-AA = molecular target: T14, APC6108-AA; conditions: mean of both orientations
T14 chain: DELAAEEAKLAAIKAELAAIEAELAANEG

APC7099-AA = molecular target: T15, APC7099-AA; conditions: mean of both orientations
T15 chain: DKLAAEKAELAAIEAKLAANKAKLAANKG

APC8191-AA = molecular target: T16, APC8191-AA; conditions: mean of both orientations
T16 chain: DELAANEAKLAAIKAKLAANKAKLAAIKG

APC8910-AA = molecular target: T17, APC8910-AA; conditions: mean of both orientations
T17 chain: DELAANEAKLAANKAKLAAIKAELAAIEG

APC9096-AA = molecular target: T18, APC9096-AA; conditions: mean of both orientations
T18 chain: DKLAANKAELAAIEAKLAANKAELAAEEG

APC9319-AA = molecular target: T19, APC9319-AA; conditions: mean of both orientations
T19 chain: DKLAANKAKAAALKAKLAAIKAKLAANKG

4H1878-AA = molecular target: T20, 4H1878-AA
T20 chain: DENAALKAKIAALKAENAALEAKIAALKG

4H235-AA = molecular target: T21, 4H235-AA; conditions: mean of both orientations
T21 chain: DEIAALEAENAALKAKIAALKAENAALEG

4H249-AA = molecular target: T22, 4H249-AA; conditions: mean of both orientations
T22 chain: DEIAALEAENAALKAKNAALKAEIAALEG

4H2580-AA = molecular target: T23, 4H2580-AA; conditions: mean of both orientations
T23 chain: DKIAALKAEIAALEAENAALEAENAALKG

4H2604-AA = molecular target: T24, 4H2604-AA; conditions: mean of both orientations
T24 chain: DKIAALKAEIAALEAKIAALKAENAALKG

4H2621-AA = molecular target: T25, 4H2621-AA; conditions: mean of both orientations
T25 chain: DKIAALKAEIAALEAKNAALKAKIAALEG

4H2760-AA = molecular target: T26, 4H2760-AA; conditions: mean of both orientations
T26 chain: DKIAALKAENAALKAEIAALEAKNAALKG

4H2774-AA = molecular target: T27, 4H2774-AA; conditions: mean of both orientations
T27 chain: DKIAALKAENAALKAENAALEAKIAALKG

4H2903-AA = molecular target: T28, 4H2903-AA; conditions: mean of both orientations
T28 chain: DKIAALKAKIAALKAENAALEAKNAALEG

4H2947-AA = molecular target: T29, 4H2947-AA; conditions: mean of both orientations
T29 chain: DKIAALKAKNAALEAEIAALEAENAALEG

4H2961-AA = molecular target: T30, 4H2961-AA; conditions: mean of both orientations
T30 chain: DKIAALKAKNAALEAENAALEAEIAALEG

4H3049-AA = molecular target: T31, 4H3049-AA; conditions: mean of both orientations
T31 chain: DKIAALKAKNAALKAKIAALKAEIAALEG

4H3094-AA = molecular target: T32, 4H3094-AA; conditions: mean of both orientations
T32 chain: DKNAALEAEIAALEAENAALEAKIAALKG

4H324-AA = molecular target: T33, 4H324-AA; conditions: mean of both orientations
T33 chain: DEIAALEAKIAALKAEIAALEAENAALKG

4H341-AA = molecular target: T34, 4H341-AA; conditions: mean of both orientations
T34 chain: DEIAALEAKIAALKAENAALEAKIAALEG

4H3449-AA = molecular target: T35, 4H3449-AA; conditions: mean of both orientations
T35 chain: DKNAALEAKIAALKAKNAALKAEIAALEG

4H3619-AA = molecular target: T36, 4H3619-AA; conditions: mean of both orientations
T36 chain: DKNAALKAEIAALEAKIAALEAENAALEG

4H3629-AA = molecular target: T37, 4H3629-AA; conditions: mean of both orientations
T37 chain: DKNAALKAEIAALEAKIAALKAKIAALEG

4H3777-AA = molecular target: T38, 4H3777-AA; conditions: mean of both orientations
T38 chain: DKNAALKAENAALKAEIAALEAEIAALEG

4H380-AA = molecular target: T39, 4H380-AA; conditions: mean of both orientations
T39 chain: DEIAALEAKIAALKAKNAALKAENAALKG

4H3915-AA = molecular target: T40, 4H3915-AA; conditions: mean of both orientations
T40 chain: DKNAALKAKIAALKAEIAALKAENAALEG

4H3974-AA = molecular target: T41, 4H3974-AA; conditions: mean of both orientations
T41 chain: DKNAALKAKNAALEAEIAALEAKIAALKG

4H432-AA = molecular target: T42, 4H432-AA; conditions: mean of both orientations
T42 chain: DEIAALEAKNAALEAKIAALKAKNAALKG

4H446-AA = molecular target: T43, 4H446-AA; conditions: mean of both orientations
T43 chain: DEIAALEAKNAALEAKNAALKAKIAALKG

4H63-AA = molecular target: T44, 4H63-AA; conditions: mean of both orientations
T44 chain: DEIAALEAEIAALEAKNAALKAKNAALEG

For DEIAALKAENAALKAEIAALKAENAALKG [4H716-AA], the interaction score (4H716-AA) was 1.49, the interaction score (4H733-AA) was -1.28 and the interaction score (4H807-AA) was -1.6. For the same binder, the interaction score (APC1015-AA) was -1.65, the interaction score (APC1434-AA) was -1.53 and the interaction score (APC2237-AA) was -1.74. The interaction score (APC232-AA) was -1.48, the interaction score (APC2405-AA) was -1 and the interaction score (APC3645-AA) was -1.45. For the same binder, the interaction score (APC4011-AA) was -1.44, the interaction score (APC4264-AA) was -1.35 and the interaction score (APC4436-AA) was -1.65. It also gave an interaction score (APC5383-AA) of -1.79, an interaction score (APC6108-AA) of -1.47 and an interaction score (APC7099-AA) of -1.6. It also gave an interaction score (APC8191-AA) of -1.36, an interaction score (APC8910-AA) of -1.89 and an interaction score (APC9096-AA) of -1.43. The interaction score (APC9319-AA) was -1.79.

Binder DENAALKAKIAALKAENAALEAKIAALKG [4H1878-AA] has an interaction score (4H1878-AA) of 0.691, an interaction score (4H235-AA) of 0.899 and an interaction score (4H249-AA) of 1.34. It also gave an interaction score (4H2580-AA) of -0.744, an interaction score (4H2604-AA) of -0.964 and an interaction score (4H2621-AA) of 2.05. It also gave an interaction score (4H2760-AA) of 1.48, an interaction score (4H2774-AA) of -1.27 and an interaction score (4H2903-AA) of -0.956. The interaction score (4H2947-AA) was -0.843, the interaction score (4H2961-AA) was -1.54 and the interaction score (4H3049-AA) was -0.448. It also gave an interaction score (4H3094-AA) of 1.41, an interaction score (4H324-AA) of 0.44 and an interaction score (4H341-AA) of 0.00503. The interaction score (4H3449-AA) was 1.63, the interaction score (4H3619-AA) was -0.661 and the interaction score (4H3629-AA) was 1.63. The interaction score (4H3777-AA) was -1.54, the interaction score (4H380-AA) was -0.854 and the interaction score (4H3915-AA) was -1.7. It also gave an interaction score (4H3974-AA) of -1.23, an interaction score (4H432-AA) of -0.557 and an interaction score (4H446-AA) of -1.08. It also gave an interaction score (4H63-AA) of 1.51.
